{"source": "patent US7723070B2", "about": "“Overexpression of aminoacyl-tRNA synthetases for efficient production of engineered proteins containing amino acid analogues” (California Institute of Technology, priority 2000, dated 2010)", "molecules": {"B1": {"name": "mDHFR: mouse dihydrofolate reductase with N-terminal hexahistidine sequence, test protein (protein, UniProt P00375 2-187, looked up)", "Dihydrofolate reductase": "VRPLNCIVAVSQNMGIGKNGDLPWPPLRNEFKYFQRMTTTSSVEGKQNLVIMGRKTWFSIPEKNRPLKDRINIVLSRELKEPPRGAHFLAKSLDDALRLIEQPELASKVDMVWIVGGSSVYQEAMNQPGHLRLFVTRIMQEFESDTFFPEIDLGKYKLLPEYPGVLSEVQEEKGIKYKFEVYEKKD", "modifications": "N-terminal His6 tag"}}, "tested_on": "B834(DE3) or CAG18491 hosts with pQE15/pREP4 or pQE15-MRS/pREP4", "assay": "Translational activity: mDHFR synthesis, statements covering several bacterial hosts (with pQE15 or pQE15-MRS)", "assay_type": "cell-based, E. coli", "settings": "each of CAG18491/pQE15/pREP4 and CAG18491/pQE15-MRS/pREP4", "experimental": "Methionine analogues were synthesized via alkylation of diethylacetamidomalonate, as previously described (As described in Example I, infra; J. C. M. van Hest, D. A. Tirrell, FEBS Lett. 1998, 428, 68-70). Cultures of B834(DE3)/pQE15-MRS/pREP4 or B834(DE3)/pQE15/pREP4 or CAG18491/pQE15-MRS/pREP4 or CAG18491/pQE15/pREP4 in M9AA media were grown to an optical density of 0.90, and the cells were sedimented by centrifugation. The M9AA medium was prepared by supplementing sterile M9 medium with […] of each of the amino acids, 1 mM MgSO4, 0.2 wt % glucose, 1 mg/ml thiamine chloride, and […] calcium chloride. The antibiotics ampicillin and kanamycin were added at concentrations of 200 mg/l and 35 mg/l, respectively.\nCells were washed three times with M9 salts and resuspended to an optical density of 0.90 in M9 test media containing 19 amino acids plus 1) neither methionine nor analogue (negative control); 2) methionine (60 mg/liter, positive control); or 3) an analogue of interest (60 mg/liter). To test the effect of increasing the level of supplementation of the analogues, a set of experiments was also conducted in which the medium was supplemented with 500 mg/liter of methionine or the amino acid analogue. Expression of mDHFR was induced by addition of 0.4 mM isopropyl β-D-thiogalactopyranoside (IPTG), and protein synthesis was monitored after 4.5 hours."}
{"molecule": "B1", "values": [{"measurement": "yield of mDHFR in M9AA medium", "result": "approximately 30 mg"}]}
